Results: patent publication US20220048996A1 (F STAR BETA, published 2022)

Columns and labels:
[1] = biological target: T1, hCD137-mFc-Avi (human); assay: SPR, antibody captured via anti-human Fc, dimeric antigen flowed, 1:1 fit
T1 construct: Dimer; a biotinylated version was used where the text says so; also called human CD137-mFc-Avi; hCD137-mFc-Avi-Bio
Experimental: (§1) For CD137 affinity determination, a Biacore CM5 chip (GE Healthcare) was coated with anti-human Fc using a Human Antibody Capture Kit (GE Healthcare) according to manufacturer's conditions, to a surface density of approximately 4000 RU. […] Human or cynomolgus CD137 (hCD137-mFc-Avi or cCD137-mFc-Avi) was flowed over at a range of concentrations in a three-fold dilution series starting at 200 nM, at a flow rate of 70 μl/min. The association time was 2 min and the dissociation time was 8 min. Running buffer was HBS-EP (GE Healthcare BR100188). Flow cells were regenerated by injecting 3M magnesium chloride at a flow rate of 30 μl/min for 30 seconds.
(§2) The binding kinetics were fit with a 1:1 Langmuir model to generate binding association (kₐ) and dissociation (kd) rates. Equilibrium binding constants (KD) were calculated by dividing the dissociation rate by the association rate for each sample. Data analysis was performed with BiaEvaluation software version 3.2.

[2] = biological target: T2, cCD137-mFc-Avi (cynomolgus monkey); assay: as above
T2 construct: 139 used; also called cyno CD137-mFc-Avi; recombinant cyno CD137
T2 chain: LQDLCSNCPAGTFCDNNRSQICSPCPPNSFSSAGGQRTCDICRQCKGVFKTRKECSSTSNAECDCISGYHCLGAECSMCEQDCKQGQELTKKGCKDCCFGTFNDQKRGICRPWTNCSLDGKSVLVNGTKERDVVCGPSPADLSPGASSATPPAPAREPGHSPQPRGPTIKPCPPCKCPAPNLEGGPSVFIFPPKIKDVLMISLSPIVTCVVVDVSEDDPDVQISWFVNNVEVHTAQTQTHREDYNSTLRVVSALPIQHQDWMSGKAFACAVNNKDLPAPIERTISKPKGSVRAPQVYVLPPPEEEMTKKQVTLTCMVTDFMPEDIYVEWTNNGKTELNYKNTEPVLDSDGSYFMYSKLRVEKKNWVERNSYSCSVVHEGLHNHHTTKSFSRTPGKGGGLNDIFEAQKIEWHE
Experimental: as §1, §2

[3] = biological target: human CD137 expressed on DO11.10 cells (DO11.10-hCD137) (human, UniProt Q07011 24-255); assay: cell-based or functional assay
Chain of human CD137 expressed on DO11.10 cells (DO11.10-hCD137) (Q07011 24-255): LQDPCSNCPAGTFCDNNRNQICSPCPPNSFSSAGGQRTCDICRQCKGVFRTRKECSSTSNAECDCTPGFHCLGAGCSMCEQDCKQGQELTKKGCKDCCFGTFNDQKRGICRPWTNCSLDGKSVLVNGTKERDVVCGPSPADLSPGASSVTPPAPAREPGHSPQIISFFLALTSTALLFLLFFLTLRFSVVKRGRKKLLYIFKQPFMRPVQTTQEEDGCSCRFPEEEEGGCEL

[4] = biological target: T3, hFcγR2b (R&D Systems 1460-CD-050/CF) (human, UniProt P31994 46-217, limits assumed); assay: SPR, antibody 100 nM on OX40-his chip co-injected with FcγR 500 nM
T3 construct: Bought; also called FcγRIIb
T3 sequence (looked up): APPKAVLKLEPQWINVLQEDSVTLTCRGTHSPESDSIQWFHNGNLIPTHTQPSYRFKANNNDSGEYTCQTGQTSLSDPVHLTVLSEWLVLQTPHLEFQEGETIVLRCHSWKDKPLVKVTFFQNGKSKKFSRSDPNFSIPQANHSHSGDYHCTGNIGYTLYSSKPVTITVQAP
Experimental: (§3) Binding was tested on a Biacore 3000 instrument (GE Healthcare). Human OX40 (BPS Bioscience cat no 71310) and human CD137 (produced in house) biotinylated his-tagged antigens were coated onto an SA chip (GE Healthcare cat no BR100398) at 2 μM concentration. Human OX40 and human CD137 were coated on separate flow cells, while another flow cell was left blank for background subtraction. Regeneration conditions were determined to be 12 μl aqueous 10 mM glycine-HCl at pH2.0 at 20 μl/min flow rate. Antibodies (see Table 8) and human FcγRs (see Table 8) were diluted to 100 nM (antibodies) or 500 nM (human FcγRs) in HBS-P (0.01 M HEPES pH 7.4, 0.15 M NaCl, 0.005% v/v Surfactant P20, GE Healthcare, BR-1003-68) and co-injected at 20 μl/min flow rate and the dissociation was followed for 5 min.
(§4) Data analysis was performed with BiaEvaluation software version 3.2 RC1 by referencing against the blank flow cell and aligning the curves after the association of the antibody. Values for binding response at the end of the association phase were generated by subtracting the […] to normalize the effect of the antibody binding to the OX40 and CD137 receptors.

[5] = biological target: T4, hFcγR3a (R&D Systems 4325-FC-050/CF) (human, UniProt P08637 17-208); assay: as above
T4 construct: Bought; In the ADCC bioassay FcγRIIIa stood on engineered Jurkat cells; also called FcγRIIIa
T4 sequence (P08637 17-208 limits assumed): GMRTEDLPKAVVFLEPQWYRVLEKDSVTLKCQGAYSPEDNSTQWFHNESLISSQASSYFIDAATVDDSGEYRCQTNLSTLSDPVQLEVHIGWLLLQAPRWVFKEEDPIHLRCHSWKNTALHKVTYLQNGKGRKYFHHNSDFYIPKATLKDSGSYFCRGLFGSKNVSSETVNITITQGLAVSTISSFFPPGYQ
Experimental: as §3, §4

[6] = biological target: T5, hFcγR1 (R&D Systems 1257-FC-050/CF) (human, UniProt P12314 16-288); assay: as above
T5 construct: Bought; also called FcγRI
T5 sequence (P12314 16-288 limits assumed): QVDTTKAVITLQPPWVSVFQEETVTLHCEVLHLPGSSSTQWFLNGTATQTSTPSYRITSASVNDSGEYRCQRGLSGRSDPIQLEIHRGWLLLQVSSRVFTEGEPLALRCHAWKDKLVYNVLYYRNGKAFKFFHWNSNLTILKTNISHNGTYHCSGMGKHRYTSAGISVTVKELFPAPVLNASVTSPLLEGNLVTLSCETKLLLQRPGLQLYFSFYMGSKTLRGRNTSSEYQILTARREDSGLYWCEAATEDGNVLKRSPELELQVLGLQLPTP
Experimental: as §3, §4

[7] = biological target: T6, hFcγR2a (R&D Systems 1330-CD-050/CF) (human, UniProt P12318 36-218, limits assumed); assay: as above
T6 construct: Bought; also called FcγRIIa
T6 sequence (looked up): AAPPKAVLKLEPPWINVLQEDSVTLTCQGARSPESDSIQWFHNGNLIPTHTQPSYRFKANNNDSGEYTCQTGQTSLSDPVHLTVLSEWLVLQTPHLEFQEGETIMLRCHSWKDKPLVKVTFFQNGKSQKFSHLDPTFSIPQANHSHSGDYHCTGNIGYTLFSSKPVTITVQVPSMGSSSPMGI
Experimental: as §3, §4

Kd [1]: 0.17 nM | Kd [2]: 0.15 nM | EC50 of mIL-2 release, DO11.10-hCD137 assay, crosslinked [3]: 4.7 nM | Emax of mIL-2 release, DO11.10-hCD137 assay, crosslinked [3]: 16300 pg/mL | binding response at end of association phase of FcγR [4]: 34.3 RU | binding response at end of association phase of FcγR [5]: 31.4 RU | binding response at end of association phase of FcγR [6]: 238 RU | binding response at end of association phase of FcγR [7]: 37.4 RU
B1: FS20-22-49AA/FS30-10-16 (bispecific antibody, human IgG1, kappa, L234A L235A)
heavy: EVQLLESGGGLVQPGGSLRLSCAASGFTFSSYDMSWVRQAPGKGLEWVSDIDPTGSKTDYADSVKGRFTISRDNSKNTLYLQMNSLRAEDTAVYYCARDLLVYGFDYWGQGTLVTVSSASTKGPSVFPLAPSSKSTSGGTAALGCLVKDYFPEPVTVSWNSGALTSGVHTFPAVLQSSGLYSLSSVVTVPSSSLGTQTYICNVNHKPSNTKVDKKVEPKSCDKTHTCPPCPAPEAAGGPSVFLFPPKPKDTLMISRTPEVTCVVVDVSHEDPEVKFNWYVDGVEVHNAKTKPREEQYNSTYRVVSVLTVLHQDWLNGKEYKCKVSNKALPAPIEKTISKAKGQPREPQVYTLPPSRDEYWDQEVSLTCLVKGFYPSDIAVEWESNGDEQFAYKTTPPVLDSDGSFFLYSKLTVDQYRWNPADYFSCSVMHEALHNHYTQKSLSLSPG
light: EIVLTQSPGTLSLSPGERATLSCRASQSVSSSYLAWYQQKPGQAPRLLIYGASSRATGIPDRFSGSGSGTDFTLTISRLEPEDFAVYYCQQSYSYPVTFGQGTKVEIKRTVAAPSVFIFPPSDEQLKSGTASVVCLLNNFYPREAKVQWKVDNALQSGNSQESVTEQDSKDSTYSLSSTLTLSKADYEKHKVYACEVTHQGLSSPVTKSFNRGEC
notes: IgG1 with LALA; also called OX40/CD137 mAb^2; copies: 2 + 2
